The values that follow come from PMC7720213, “Structure of eukaryotic DNA polymerase δ bound to the PCNA clamp while encircling DNA” (Proceedings of the National Academy of Sciences of the …, 2020).

The term stoichiometry N denotes a count of units in the complex or per binding partner.

T1: S.c. DNA polymerase δ catalytic subunit Pol3 with the D321S and E323S mutations in the exonuclease active site (S. cerevisiae, UniProt P15436 1-1097, D321S | E323S)
T1 construct: Pol3, catalytic subunit of Saccharomyces cerevisiae DNA polymerase δ; carries a 4Fe-4S cluster (CysB) and a zinc finger (CysA); Stood in the assay as part of the three-subunit Pol δ; also called catalytic subunit of Pol δ^exo-
T1 sequence: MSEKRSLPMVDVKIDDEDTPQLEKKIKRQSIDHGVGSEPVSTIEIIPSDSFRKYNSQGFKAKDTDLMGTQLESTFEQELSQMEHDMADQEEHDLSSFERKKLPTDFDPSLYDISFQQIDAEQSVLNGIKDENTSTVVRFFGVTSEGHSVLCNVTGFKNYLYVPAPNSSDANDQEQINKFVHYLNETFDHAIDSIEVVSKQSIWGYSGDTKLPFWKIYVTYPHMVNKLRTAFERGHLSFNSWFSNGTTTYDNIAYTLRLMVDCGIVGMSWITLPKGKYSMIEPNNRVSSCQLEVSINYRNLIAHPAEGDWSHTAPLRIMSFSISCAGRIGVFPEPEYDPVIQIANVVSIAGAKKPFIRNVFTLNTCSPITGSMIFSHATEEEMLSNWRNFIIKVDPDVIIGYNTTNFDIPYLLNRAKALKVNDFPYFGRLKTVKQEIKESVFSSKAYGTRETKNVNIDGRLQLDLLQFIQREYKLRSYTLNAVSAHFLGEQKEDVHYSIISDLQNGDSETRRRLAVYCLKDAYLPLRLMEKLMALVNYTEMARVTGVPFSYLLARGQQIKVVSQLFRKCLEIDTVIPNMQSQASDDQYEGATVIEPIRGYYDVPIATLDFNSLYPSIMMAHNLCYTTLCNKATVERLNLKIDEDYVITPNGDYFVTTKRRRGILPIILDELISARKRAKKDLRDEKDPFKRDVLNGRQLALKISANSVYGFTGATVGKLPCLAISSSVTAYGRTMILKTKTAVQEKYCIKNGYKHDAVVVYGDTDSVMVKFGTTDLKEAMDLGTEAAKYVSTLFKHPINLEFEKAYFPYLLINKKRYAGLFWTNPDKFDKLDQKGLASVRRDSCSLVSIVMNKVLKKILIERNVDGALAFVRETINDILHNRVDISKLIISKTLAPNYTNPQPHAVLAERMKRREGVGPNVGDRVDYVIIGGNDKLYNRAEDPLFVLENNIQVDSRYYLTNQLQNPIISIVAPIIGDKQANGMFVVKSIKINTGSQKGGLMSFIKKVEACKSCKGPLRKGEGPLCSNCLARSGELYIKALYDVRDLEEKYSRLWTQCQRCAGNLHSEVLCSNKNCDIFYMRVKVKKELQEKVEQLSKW

B1: S.c. proliferating cell nuclear antigen (PCNA) sliding clamp (natural protein, S. cerevisiae)
chain: MLEAKFEEASLFKRIIDGFKDCVQLVNFQCKEDGIIAQAVDDSRVLLVSLEIGVEAFQEYRCDHPVTLGMDLTSLSKILRCGNNTDTLTLIADNTPDSIILLFEDTKKDRIAEYSLKLMDIDADFLKIEELQYDSTLSLPSSEFSKIVRDLSQLSDSINIMITKETIKFVADGDIGSGSVIIKPFVDMEHPETSIKLEMDQPVDLTFGAKYLLDIIKGSSLSDRVGIRLSSEAPALFQFDLKSGFLQFFLAPKFNDEE
notes: PCNA of Saccharomyces cerevisiae, homotrimeric ring; also called PCNA clamp; PCNA trimer; source: purified
B2: 62-mer ssDNA (ssDNA)
DNA: ATGCTTAGCCTGAGGACTATTCTACTTAACGCGAGTTACGTGACGGTATCTTATCCGGCGC
B3: T/P DNA (38-nt template / 25-nt primer) (dsDNA)
DNA 1: CTGCACGAATTAAGCAATTCGTAATCATGGTCATAGCT
DNA 2: AGCTATGACCATGATTACGAATTGC
modifications: primer 3'-terminal dideoxy-C
B4: S.c. DNA polymerase δ regulatory subunit Pol32 (natural protein, S. cerevisiae)
chain: MDQKASYFINEKLFTEVKPVLFTDLIHHLKIGPSMAKKLMFDYYKQTTNAKYNCVVICCYKDQTIKIIHDLSNIPQQDSIIDCFIYAFNPMDSFIPYYDIIDQKDCLTIKNSYELKVSESSKIIERTKTLEEKSKPLVRPTARSKTTPEETTGRKSKSKDMGLRSTALLAKMKKDRDDKETSRQNELRKRKEENLQKINKQNPEREAQMKELNNLFVEDDLDTEEVNGGSKPNSPKETDSNDKDKNNDDLEDLLETTAEDSLMDVPKIQQTKPSETEHSKEPKSEEEPSSFIDEDGYIVTKRPATSTPPRKPSPVVKRALSSSKKQETPSSNKRLKKQGTLESFFKRKAK
notes: Pol32, regulatory subunit of Saccharomyces cerevisiae DNA polymerase δ; Stood in the assay as part of the three-subunit Pol δ
B5: S.c. DNA polymerase δ regulatory subunit Pol31 (natural protein, S. cerevisiae)
chain: MDALLTKFNEDRSLQDENLSQPRTRVRIVDDNLYNKSNPFQLCYKKRDYGSQYYHIYQYRLKTFRERVLKECDKRWDAGFTLNGQLVLKKDKVLDIQGNQPCWCVGSIYCEMKYKPNVLDEVINDTYGAPDLTKSYTDKEGGSDEIMLEDESGRVLLVGDFIRSTPFITGVVVGILGMEAEAGTFQVLDICYPTPLPQNPFPAPIATCPTRGKIALVSGLNLNNTSPDRLLRLEILREFLMGRINNKIDDISLIGRLLICGNSVDFDIKSVNKDELMISLTEFSKFLHNILPSISVDIMPGTNDPSDKSLPQQPFHKSLFDKSLESYFNGSNKEILNLVTNPYEFSYNGVDVLAVSGKNINDICKYVIPSNDNGESENKVEEGESNDFKDDIEHRLDLMECTMKWQNIAPTAPDTLWCYPYTDKDPFVLDKWPHVYIVANQPYFGTRVVEIGGKNIKIISVPEFSSTGMIILLDLETLEAETVKIDI
notes: Pol31 (B subunit), regulatory subunit of Saccharomyces cerevisiae DNA polymerase δ; Stood in the assay as part of the three-subunit Pol δ; also called B subunit

The target in series [1] is T2, S.c. DNA polymerase δ (Pol3-Pol31-Pol32) harboring the D321S and E323S mutations in the exonuclease domain of … (S. cerevisiae, UniProt P15436 1-1097; P46957 1-487; P47110 1-350, D321S | E323S).
T2 construct: Pol3, catalytic subunit of Saccharomyces cerevisiae DNA polymerase δ; Pol31 (B subunit), regulatory subunit of Saccharomyces cerevisiae DNA polymerase δ; Pol32, regulatory subunit of Saccharomyces cerevisiae DNA polymerase δ; also called Pol δ^exo-; Pol δ; copies: + +
The experiment in a line: cryo-EM structure; 8.0 uM PCNA and 6.0 uM T/P DNA mixed in Hepes-KOH pH 7.5, DTT, MgAc, KOAc, potassium glutamate, 0.4 mM ddTTP, then 3.3 uM Pol δ added; PCNA:Pol δ:T/P DNA 1.2:1:0.9; on ice 1 h; 3.2 Å map. Particulars: both partners purified.

Series [2] deals with T1, S.c. DNA polymerase δ catalytic subunit …. The description is as above. Particulars: both partners purified.
Series [3] concerns the molecule itself. Described as above.
The next series has as its target Pol31-Pol32 complex (Saccharomyces cerevisiae, UniProt P46957;P47110 1-487;1-350). The experiment in a line: EMSA; 5 mM Mg2+; 0-5 uM protein, 0.5 nM DNA; EMSA: 50 mM Hepes pH 7.5, 5 mM MgCl2, 50 mM NaOAc, 1 mM DTT, 6% glycerol, 90 min at room temperature; 8% native PAGE in 40 mM Tris, 150 mM glycine pH 8.0. Particulars: protein: recombinant; tags: GST tag removed with PreScission protease; copies: 1;1; label: 5'-32P; single strand. A general note: Mobility shift assays separate free from complexed probe on a gel.

The target of series [4] is Pol delta exo- (Pol3-Pol31-Pol32);PCNA (Saccharomyces cerevisiae;Saccharomyces …, UniProt P15436;P46957;P47110;P15873 1-1097;1-487;1-350;1-258, D321S;E323S|). The experiment in a line: cryo-EM 3.2 A; ddTTP; 4Fe-4S cluster, Zn2+; EMSA: 50 mM Hepes pH 7.5, 5 mM MgCl2, 50 mM NaOAc, 1 mM DTT, 6% glycerol, 90 min at room temperature; 8% native PAGE in 40 mM Tris, 150 mM glycine pH 8.0. Particulars: protein: recombinant;recombinant; tags: ;; copies: 1;1;1;3; 25 bp, 5' overhang 13 nt on template.

For series [5], the target named is B5. The experiment in a line: cryo-EM structure; 8.0 uM PCNA and 6.0 uM T/P DNA mixed in Hepes-KOH pH 7.5, DTT, MgAc, KOAc, potassium glutamate, 0.4 mM ddTTP, then 3.3 uM Pol δ added; PCNA:Pol δ:T/P DNA 1.2:1:0.9; on ice 1 h; 3.2 Å map. Particulars: both partners purified.

For the molecule B1, the binding result in series [1] and in series [2] was “binds” in each case. For the same molecule, in series [3], the “stoichiometry N” value stood at 3. Take B2: the binding result in the series with Pol31-Pol32 complex is given as “binds”. For B3, in series [4], the binding result is “binds”. For the molecule B4, the binding result in series [5] is given as “binds”.

For B5, the binding result in series [2] is recorded as “binds”.
